Assay results reported in patent US20140087995A1 (published 2014).
Numbered stars: 1 amine (or outer) side, 2 acyl side, 3 side chain; on linkers, the order of the positions; unused ones are H or OH. Bridge positions count the residues as written; N and C are the ends. Side chains are listed from the residue outwards. Ends that are not written are not given here. * marks the point of attachment. C20 diacid = O=C(O)CCCCCCCCCCCCCCCCCCC(=O)*; γGlu = O=C(O)[C@H](CCC(=O)[*:2])N[*:1]

T1: human amylin receptor (human calcitonin receptor co-expressed with RAMP-3; amylin 3(a) receptor) (human, UniProt P30988 25-474; O60896 24-148, limits assumed)
T1 construct: whole, on cells; Used as cell membranes prepared from Amylin 3(a)/CRE-luc BHK cells (Assay V), not as intact cells; also called hAmylin-R; hAmylinR
T1 sequence (looked up) 1: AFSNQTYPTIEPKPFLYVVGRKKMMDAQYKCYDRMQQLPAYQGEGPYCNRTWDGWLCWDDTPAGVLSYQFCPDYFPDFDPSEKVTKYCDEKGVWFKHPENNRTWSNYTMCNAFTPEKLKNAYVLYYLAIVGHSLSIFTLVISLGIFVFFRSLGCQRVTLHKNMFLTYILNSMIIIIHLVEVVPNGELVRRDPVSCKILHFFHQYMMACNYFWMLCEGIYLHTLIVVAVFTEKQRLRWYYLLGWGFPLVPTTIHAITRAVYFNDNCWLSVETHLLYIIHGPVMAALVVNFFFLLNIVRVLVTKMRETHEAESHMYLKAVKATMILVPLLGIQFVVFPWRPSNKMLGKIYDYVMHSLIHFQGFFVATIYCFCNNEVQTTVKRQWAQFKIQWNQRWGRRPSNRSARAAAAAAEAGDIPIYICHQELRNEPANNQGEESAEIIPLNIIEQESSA
T1 sequence (looked up) 2: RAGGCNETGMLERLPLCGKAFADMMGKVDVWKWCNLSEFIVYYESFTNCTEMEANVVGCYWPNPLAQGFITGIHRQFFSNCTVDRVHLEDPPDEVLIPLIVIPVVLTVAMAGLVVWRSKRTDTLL

T2: human calcitonin receptor (human, UniProt P30988 25-474)
T2 construct: whole, on cells; Used as cell membranes prepared from the transfected BHK cells (Assay VII), not as intact cells; also called hCTR; hCT
T2 sequence (looked up): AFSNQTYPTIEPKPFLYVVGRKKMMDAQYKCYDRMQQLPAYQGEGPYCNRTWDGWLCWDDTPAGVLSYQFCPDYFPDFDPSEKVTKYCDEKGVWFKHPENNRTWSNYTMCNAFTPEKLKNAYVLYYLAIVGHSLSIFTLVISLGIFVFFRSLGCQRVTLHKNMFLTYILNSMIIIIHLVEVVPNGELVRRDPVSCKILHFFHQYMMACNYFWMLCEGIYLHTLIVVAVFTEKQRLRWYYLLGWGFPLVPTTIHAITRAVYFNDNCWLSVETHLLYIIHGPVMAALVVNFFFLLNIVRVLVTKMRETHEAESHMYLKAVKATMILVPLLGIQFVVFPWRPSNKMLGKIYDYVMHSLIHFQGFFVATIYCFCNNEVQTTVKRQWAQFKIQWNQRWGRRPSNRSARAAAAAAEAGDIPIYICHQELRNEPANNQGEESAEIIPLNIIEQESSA


Key:
[1] = molecular target: T1, human amylin receptor (human calcitonin …); assay: ratio of hCTR binding IC50 to hAmylin-R binding IC50 (reference: human calcitonin receptor)
Procedure, shortened: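 Competition binding by SPA with cell membranes (35 ng/μL) and SPA beads in 50 mM Hepes pH 7.4 with 1 mM CaCl2, 5 mM MgCl2, 0.1% OA and 0.02% Tween20. Incubated 120 min at 25 °C with shaking, then counted.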

[2] = molecular target: T2, human calcitonin receptor; assay: SPA competition against 125I-calcitonin, membranes with human calcitonin receptor (Assay VII)
Procedure, shortened: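 BHK hCTR membranes 35 ng/μL + SPA beads 0.05 mg/well; buffer 50 mM Hepes pH 7.4, 1 mM CaCl2, 5 mM MgCl₂, 0.1% OA, 0.02% Tween20. 120 min, 25° C., shaking. Scintillation count; IC50 by one-site binding competition.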

Binder | Ratio hCT/hAmylin binding [1] | IC50 [2]
K([γGlu-C20 diacid])CNTATCATQRLANFLRHSSPNFGAIPSSTNVGSHTY-NH2 (disulfide 2-7; N-terminus assumed; SMILES CC[C@H](C)[C@H](NC(=O)[C@H](C)NC(=O)CNC(=O)[C@H](Cc1ccccc1)NC(=O)[C@H](CC(N)=O)NC(=O)[C@@H]1CCCN1C(=O)[C@H](CO)NC(=O)[C@H](CO)NC(=O)[C@H](Cc1c[nH]cn1)NC(=O)[C@H](CCCNC(=N)N)NC(=O)[C@H](CC(C)C)NC(=O)[C@H](Cc1ccccc1)NC(=O)[C@H](CC(N)=O)NC(=O)[C@H](C)NC(=O)[C@H](CC(C)C)NC(=O)[C@H](CCCNC(=N)N)NC(=O)[C@H](CCC(N)=O)NC(=O)[C@@H](NC(=O)[C@H](C)NC(=O)[C@@H]1CSSC[C@H](NC(=O)[C@@H](N)CCCCNC(=O)CC[C@H](NC(=O)CCCCCCCCCCCCCCCCCCC(=O)O)C(=O)O)C(=O)N[C@@H](CC(N)=O)C(=O)N[C@@H]([C@@H](C)O)C(=O)N[C@@H](C)C(=O)N[C@@H]([C@@H](C)O)C(=O)N1)[C@@H](C)O)C(=O)N1CCC[C@H]1C(=O)N[C@@H](CO)C(=O)N[C@@H](CO)C(=O)N[C@H](C(=O)N[C@@H](CC(N)=O)C(=O)N[C@H](C(=O)NCC(=O)N[C@@H](CO)C(=O)N[C@@H](Cc1c[nH]cn1)C(=O)N[C@H](C(=O)N[C@@H](Cc1ccc(O)cc1)C(N)=O)[C@@H](C)O)C(C)C)[C@@H](C)O, also called compound 60) [N^ε1-[(4S)-4-carboxy-4-(19-carboxynonadecanoylamino)butanoyl]-[Arg17,Pro21,Pro27,His35]-h-amylin] | 45.2 | 31.4 nM
K([γGlu-C20 diacid])CNTATCATQRLAHFLRHSSPNFGAIPSSTNVGPNTY-NH2 (disulfide 2-7; N-terminus assumed; SMILES CC[C@H](C)[C@H](NC(=O)[C@H](C)NC(=O)CNC(=O)[C@H](Cc1ccccc1)NC(=O)[C@H](CC(N)=O)NC(=O)[C@@H]1CCCN1C(=O)[C@H](CO)NC(=O)[C@H](CO)NC(=O)[C@H](Cc1c[nH]cn1)NC(=O)[C@H](CCCNC(=N)N)NC(=O)[C@H](CC(C)C)NC(=O)[C@H](Cc1ccccc1)NC(=O)[C@H](Cc1c[nH]cn1)NC(=O)[C@H](C)NC(=O)[C@H](CC(C)C)NC(=O)[C@H](CCCNC(=N)N)NC(=O)[C@H](CCC(N)=O)NC(=O)[C@@H](NC(=O)[C@H](C)NC(=O)[C@@H]1CSSC[C@H](NC(=O)[C@@H](N)CCCCNC(=O)CC[C@H](NC(=O)CCCCCCCCCCCCCCCCCCC(=O)O)C(=O)O)C(=O)N[C@@H](CC(N)=O)C(=O)N[C@@H]([C@@H](C)O)C(=O)N[C@@H](C)C(=O)N[C@@H]([C@@H](C)O)C(=O)N1)[C@@H](C)O)C(=O)N1CCC[C@H]1C(=O)N[C@@H](CO)C(=O)N[C@@H](CO)C(=O)N[C@H](C(=O)N[C@@H](CC(N)=O)C(=O)N[C@H](C(=O)NCC(=O)N1CCC[C@H]1C(=O)N[C@@H](CC(N)=O)C(=O)N[C@H](C(=O)N[C@@H](Cc1ccc(O)cc1)C(N)=O)[C@@H](C)O)C(C)C)[C@@H](C)O, also called compound 67) | 51.6 | 4.63 nM
K([γGlu-C20 diacid])CNTATCATQRLAHFLRHSSPNFGAIPSSTPVGSNTY-NH2 (disulfide 2-7; N-terminus assumed; SMILES CC[C@H](C)[C@H](NC(=O)[C@H](C)NC(=O)CNC(=O)[C@H](Cc1ccccc1)NC(=O)[C@H](CC(N)=O)NC(=O)[C@@H]1CCCN1C(=O)[C@H](CO)NC(=O)[C@H](CO)NC(=O)[C@H](Cc1c[nH]cn1)NC(=O)[C@H](CCCNC(=N)N)NC(=O)[C@H](CC(C)C)NC(=O)[C@H](Cc1ccccc1)NC(=O)[C@H](Cc1c[nH]cn1)NC(=O)[C@H](C)NC(=O)[C@H](CC(C)C)NC(=O)[C@H](CCCNC(=N)N)NC(=O)[C@H](CCC(N)=O)NC(=O)[C@@H](NC(=O)[C@H](C)NC(=O)[C@@H]1CSSC[C@H](NC(=O)[C@@H](N)CCCCNC(=O)CC[C@H](NC(=O)CCCCCCCCCCCCCCCCCCC(=O)O)C(=O)O)C(=O)N[C@@H](CC(N)=O)C(=O)N[C@@H]([C@@H](C)O)C(=O)N[C@@H](C)C(=O)N[C@@H]([C@@H](C)O)C(=O)N1)[C@@H](C)O)C(=O)N1CCC[C@H]1C(=O)N[C@@H](CO)C(=O)N[C@@H](CO)C(=O)N[C@H](C(=O)N1CCC[C@H]1C(=O)N[C@H](C(=O)NCC(=O)N[C@@H](CO)C(=O)N[C@@H](CC(N)=O)C(=O)N[C@H](C(=O)N[C@@H](Cc1ccc(O)cc1)C(N)=O)[C@@H](C)O)C(C)C)[C@@H](C)O, also called compound 62) | 63 | 6.17 nM
K([γGlu-C20 diacid])CNTATCATQRLAHFLRHSSPNFGAIPSSTNVGSHTY-NH2 (disulfide 2-7; N-terminus assumed; SMILES CC[C@H](C)[C@H](NC(=O)[C@H](C)NC(=O)CNC(=O)[C@H](Cc1ccccc1)NC(=O)[C@H](CC(N)=O)NC(=O)[C@@H]1CCCN1C(=O)[C@H](CO)NC(=O)[C@H](CO)NC(=O)[C@H](Cc1c[nH]cn1)NC(=O)[C@H](CCCNC(=N)N)NC(=O)[C@H](CC(C)C)NC(=O)[C@H](Cc1ccccc1)NC(=O)[C@H](Cc1c[nH]cn1)NC(=O)[C@H](C)NC(=O)[C@H](CC(C)C)NC(=O)[C@H](CCCNC(=N)N)NC(=O)[C@H](CCC(N)=O)NC(=O)[C@@H](NC(=O)[C@H](C)NC(=O)[C@@H]1CSSC[C@H](NC(=O)[C@@H](N)CCCCNC(=O)CC[C@H](NC(=O)CCCCCCCCCCCCCCCCCCC(=O)O)C(=O)O)C(=O)N[C@@H](CC(N)=O)C(=O)N[C@@H]([C@@H](C)O)C(=O)N[C@@H](C)C(=O)N[C@@H]([C@@H](C)O)C(=O)N1)[C@@H](C)O)C(=O)N1CCC[C@H]1C(=O)N[C@@H](CO)C(=O)N[C@@H](CO)C(=O)N[C@H](C(=O)N[C@@H](CC(N)=O)C(=O)N[C@H](C(=O)NCC(=O)N[C@@H](CO)C(=O)N[C@@H](Cc1c[nH]cn1)C(=O)N[C@H](C(=O)N[C@@H](Cc1ccc(O)cc1)C(N)=O)[C@@H](C)O)C(C)C)[C@@H](C)O, also called compound 66) | 45.5 | 18 nM
K([γGlu-C20 diacid])CNTATCATQRLAEFLRHSSPNFGAIPSSTNVGSRTY-NH2 (disulfide 2-7; N-terminus assumed; SMILES CC[C@H](C)[C@H](NC(=O)[C@H](C)NC(=O)CNC(=O)[C@H](Cc1ccccc1)NC(=O)[C@H](CC(N)=O)NC(=O)[C@@H]1CCCN1C(=O)[C@H](CO)NC(=O)[C@H](CO)NC(=O)[C@H](Cc1c[nH]cn1)NC(=O)[C@H](CCCNC(=N)N)NC(=O)[C@H](CC(C)C)NC(=O)[C@H](Cc1ccccc1)NC(=O)[C@H](CCC(=O)O)NC(=O)[C@H](C)NC(=O)[C@H](CC(C)C)NC(=O)[C@H](CCCNC(=N)N)NC(=O)[C@H](CCC(N)=O)NC(=O)[C@@H](NC(=O)[C@H](C)NC(=O)[C@@H]1CSSC[C@H](NC(=O)[C@@H](N)CCCCNC(=O)CC[C@H](NC(=O)CCCCCCCCCCCCCCCCCCC(=O)O)C(=O)O)C(=O)N[C@@H](CC(N)=O)C(=O)N[C@@H]([C@@H](C)O)C(=O)N[C@@H](C)C(=O)N[C@@H]([C@@H](C)O)C(=O)N1)[C@@H](C)O)C(=O)N1CCC[C@H]1C(=O)N[C@@H](CO)C(=O)N[C@@H](CO)C(=O)N[C@H](C(=O)N[C@@H](CC(N)=O)C(=O)N[C@H](C(=O)NCC(=O)N[C@@H](CO)C(=O)N[C@@H](CCCNC(=N)N)C(=O)N[C@H](C(=O)N[C@@H](Cc1ccc(O)cc1)C(N)=O)[C@@H](C)O)C(C)C)[C@@H](C)O, also called compound 51) | 37.5 | 31.1 nM
